Test results reported in article PMC8351736 (Molecular Biology of the Cell, 2021).
Where a chain is given by its changes, count along the chain named. Numbers in names are those of the source. Like-named read-outs stand apart in the source and are kept apart here. Ends that are not written are not given here. * marks the point of attachment. FITC = O=C1OC2(c3ccc(O)cc3Oc3cc(O)ccc32)c2ccc(NC(=S)*)cc21

T1: GST-Aim21^504,507,509E (S. cerevisiae, UniProt P40563 1-679, Aim21^504,507,509E | Aim21^504,507,509E | Aim21^504,507,509E)
T1 sequence (looked up): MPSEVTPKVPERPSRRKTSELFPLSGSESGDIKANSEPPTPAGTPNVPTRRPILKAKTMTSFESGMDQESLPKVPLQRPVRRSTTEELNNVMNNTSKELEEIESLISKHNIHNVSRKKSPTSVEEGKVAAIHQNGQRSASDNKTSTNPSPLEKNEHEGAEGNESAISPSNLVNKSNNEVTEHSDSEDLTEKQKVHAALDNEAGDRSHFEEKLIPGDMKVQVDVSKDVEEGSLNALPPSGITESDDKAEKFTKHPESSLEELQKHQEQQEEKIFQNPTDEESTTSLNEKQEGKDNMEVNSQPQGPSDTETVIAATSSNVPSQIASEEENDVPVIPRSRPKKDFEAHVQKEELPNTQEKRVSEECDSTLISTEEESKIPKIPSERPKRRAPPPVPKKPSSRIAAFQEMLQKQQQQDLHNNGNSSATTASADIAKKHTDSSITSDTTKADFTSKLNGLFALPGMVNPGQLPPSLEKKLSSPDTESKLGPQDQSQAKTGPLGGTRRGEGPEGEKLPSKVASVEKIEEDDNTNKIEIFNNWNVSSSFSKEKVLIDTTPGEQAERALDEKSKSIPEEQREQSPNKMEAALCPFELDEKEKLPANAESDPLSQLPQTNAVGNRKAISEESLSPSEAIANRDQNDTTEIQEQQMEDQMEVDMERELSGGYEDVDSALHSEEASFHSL

T2: His-tagged Aim21 (His-Aim21) (S. cerevisiae, UniProt P40563 1-679)
T2 sequence (looked up): T1 sequence (looked up) with E504R, E507R, E509R

T3: His-Tda2 K107E (S. cerevisiae, UniProt P40045 2-126, K107E)
T3 sequence: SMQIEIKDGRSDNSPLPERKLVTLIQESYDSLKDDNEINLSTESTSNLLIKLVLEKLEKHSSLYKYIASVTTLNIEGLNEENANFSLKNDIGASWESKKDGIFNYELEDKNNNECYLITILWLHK

T4: His-Tda2 I103Q (S. cerevisiae, UniProt P40045 2-126, I103Q)
T4 sequence: T3 sequence with I102Q, E106K

T5: Aim21^1-600-GST (S. cerevisiae, UniProt P40563 1-600)
T5 sequence (looked up): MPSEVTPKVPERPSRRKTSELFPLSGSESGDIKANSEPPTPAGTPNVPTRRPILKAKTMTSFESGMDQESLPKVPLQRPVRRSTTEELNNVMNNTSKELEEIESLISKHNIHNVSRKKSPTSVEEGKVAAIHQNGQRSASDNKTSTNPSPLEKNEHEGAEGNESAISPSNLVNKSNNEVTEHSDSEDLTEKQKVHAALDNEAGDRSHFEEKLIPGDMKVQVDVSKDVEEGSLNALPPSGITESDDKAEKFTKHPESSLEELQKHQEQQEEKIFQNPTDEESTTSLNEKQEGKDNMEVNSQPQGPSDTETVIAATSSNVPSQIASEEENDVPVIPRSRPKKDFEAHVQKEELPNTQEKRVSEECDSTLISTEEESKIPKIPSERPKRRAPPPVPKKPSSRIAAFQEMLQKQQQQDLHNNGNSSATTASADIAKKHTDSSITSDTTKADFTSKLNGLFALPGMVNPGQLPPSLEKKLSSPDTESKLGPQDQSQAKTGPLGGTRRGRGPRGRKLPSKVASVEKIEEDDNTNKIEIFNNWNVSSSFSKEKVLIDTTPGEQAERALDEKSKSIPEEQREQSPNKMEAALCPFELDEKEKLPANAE

B1: 6-histidine-tagged Tda2 (His-Tda2) (natural protein, S. cerevisiae)
chain: T3 sequence with E106K
B2: FITC-Aim21^CPI+TBR with 25 µM His-Tda2 (reconstituted Tda2-Aim21 peptide complex) (complex, S. cerevisiae)
peptide: KTGPLGGTRRGRGPRGRKLPSKVASVEKIEEDDNTNKIEIFNNWNVS
chain: T3 sequence with E106K
modifications: FITC label (printed FITC-KTGPLGG...)
B3: His-Tda2 D101A (natural protein, S. cerevisiae)
chain: T3 sequence with D100A, E106K
B4: His-Tda2 F86V (natural protein, S. cerevisiae)
chain: T3 sequence with F85V, E106K
B5: 6-histidine-tagged actin capping protein (His-Cap1/2 heterodimer) (complex, S. cerevisiae)
chain 1: MSSSKFEEVINKIINDSPPGELREVYDDLIKITSENSKNTILDAIENYNVQNCIPIEVNGNSVIISKYNKEGAKFFDPVNSVIFSVNHLERKGLDIEPYEFTHAKIEKGQLKELHDKLHEYLLQSFPGDVSFAVYPVPEEISKISIIIVSTKYNPNNFWNGHWRSSYIYDLETRELSGQISTQVHYYEDGNVSFQSGKDINQSNVDDVVCTIRDIETNFENDLDLSFFDLNEKQFKALRRRLPVTRSKINWGSAIGSYRLGKNAAEGK
chain 2: MSDAQFDAALDLLRRLNPTTLQENLNNLIELQPNLAQDLLSSVDVPLSTQKDSADSNREYLCCDYNRDIDSFRSPWSNTYYPELSPKDLQDSPFPSAPLRKLEILANDSFDVYRDLYYEGGISSVYLWDLNEEDFNGHDFAGVVLFKKNQSDHSNWDSIHVFEVTTSPSSPDSFNYRVTTTIILHLDKTKTDQNSHMMLSGNLTRQTEKDIAIDMSRPLDVIFTSHVANLGSLIEDIESQMRNLLETVYFEKTRDIFHQTKNAAIASSAEEANKDAQAEVIRGLQSL

Legend:
GST-Aim21^504,507,509E = molecular target: T1, GST-Aim21^504,507,509E; assay: pull-down
[1] = molecular target: the molecule itself; assay: SEC + other: sucrose density gradient fractionation
[2] = molecular target: T2, His-tagged Aim21 (His-Aim21); assay: as above
[3] = molecular target: B5; assay: fluorescence polarisation
SEC = molecular target: the molecule itself; assay: SEC
[4] = molecular target: B1; assay: fluorescence polarisation
[5] = molecular target: B5; assay: fluorescence polarisation; remark: listed apart in the source
His-Tda2 F86V [6] = molecular target: B4; assay: fluorescence polarisation
His-Tda2 K107E = molecular target: T3, His-Tda2 K107E; assay: pull-down
His-Tda2 I103Q = molecular target: T4, His-Tda2 I103Q; assay: pull-down
His-Tda2 F86V [7] = molecular target: B4; assay: pull-down
Aim21^1-600-GST = molecular target: T5, Aim21^1-600-GST; assay: pull-down

## B1
GST-Aim21^504,507,509E
  binding result: binds
[1]
  stoichiometry N: 2
[2]
  stoichiometry N: 2 Aim21 molecules per Tda2 homodimer

## B2
[3]
  Kd: 250 nM

## B3
SEC
  binding result: binds

## {FITC}-KTGPLGGTRRGRGPRGRKLPSKVASVEKIEEDDNTNKIEIFNNWNVS [FITC-labeled Aim21 peptide spanning AA 493–539, with the CPI motif and the TBR (FITC-Aim21^CPI+TBR)]
[4]
  binding result: binds
[5]
  Kd: 3100 nM

## {FITC}-KIEIFNNWNVS [FITC-labeled Aim21 peptide spanning AA 529–539 (FITC-Aim21)]
His-Tda2 F86V [6]
  binding result: binds

## B4
SEC
  binding result: binds

## KLPSKVASVEKIEEDDNTNKIEIFNNWNVSSSFSKEKVLIDTTPGE (domain or fragment, S. cerevisiae, UniProt P40563 510-555, looked up) [GST-Aim21^510-555 (wild type)]
His-Tda2 K107E
  binding result: binds
His-Tda2 I103Q
  binding result: binds
His-Tda2 F86V [7]
  binding result: binds

## B5
Aim21^1-600-GST
  binding result: binds
